Assay results taken from paper PMC5855864.

Experiments:
Assay in all cases: SPR
Protein A, recombinant = Protein A, recombinant (UniProt P38507); settings: aptamer immobilized; 100 mM NaCl, 20 mM Tris-HCl pH 7.6, 10 mM MgCl2, 5 mM KCl, 1 mM CaCl2, 0.005% surfactant P20, 21 °C (SPR Biacore X100)
[1] = biological target: Protein A, native (Staphylococcus aureus) (UniProt P38507); settings: aptamer immobilized; 100 mM NaCl, 20 mM Tris-HCl pH 7.6, 10 mM MgCl2, 5 mM KCl, 1 mM CaCl2, 0.005% surfactant P20, 21 °C (SPR Biacore X100)
[2] = biological target: Protein A, native, biotinylated (Staphylococcus aureus) (UniProt P38507); settings: protein immobilized, aptamer as analyte; 100 mM NaCl, 20 mM Tris-HCl pH 7.6, 10 mM MgCl2, 5 mM KCl, 1 mM CaCl2, 0.005% surfactant P20, 21 °C (SPR Biacore X100)

Sequence | Kd (Protein A, recombinant) [nM] | Kd [1] [nM] | Kd [2] [µM]
ATACCAGCTTATTCAATTAGCAACATGAGGGGGATGGAGGGGGTGGGTTCTCTCGGCTACAATCGTAATCAGTTAG [PA-C4] | 222 |  | 
ATACCAGCTTATTCAATTAGCAACATGAGGGGGATAGAGGGGGTGGGTTCTCTCGGCTACAATCGTAATCAGTTAG [PA#2/8 (3'-biotin)] | 92 | 20 | 
ATACCAGCTTATTCAATTGGGCACCACGGGAGTCGGCCACATTTGGAGTTGTTTTTGCACAATCGTAATCAGTTAG [PA#14/89 (3'-biotin)] | 2660 | 467 | 
ATACCAGCTTATTCAATTAGCAACATGAGGGGGGATAGAGGGGGTGGGTTCTCTCGGCTACAATCGTAATCAGTTAG [PA-C7] | 1610 |  | 
ATACCAGCTTATTCAATTAGCAACATGAGGGGGATAGAGGGGGTGGGTTCTCTCGGCTACAATCGTAATCAGTTAG [PA#2/8 (unmodified)] |  |  | 3.73
ATACCAGCTTATTCAATTAGGCCAGATGAGGGGTGCCCATGGCGGGGTGGCTGCTCCAACAATCGTAATCAGTTAG [PA-C8 (3'-biotin)] | 443 | 99 | 
ATACCAGCTTATTCAATTGCGCACCACGGGAGTTGGCCACATTTGGAGTTGTTTTTGCACAATCGTAATCAGTTAG [PA-C10 (3'-biotin)] | 2730 | 588 | 
